Data published in paper PMC11077049, “Unearthing a novel function of SRSF1 in binding and unfolding of RNA G-quadruplexes”.

Tests used:
RRM tandem WT (Table 3) = RRM tandem WT (Table 3) (human, UniProt Q07955 1-196); assay: FP; FP, 10 nM RNA, 37 C 30 min then 25 C 10 min; 21-mers: 25 mM KCl, 0.25 M Arg/Glu, 20 mM Tris-HCl pH 7.5, 0.1 mM EDTA, 0.1 mM TCEP, 0.02% Tween 20; 8-mers: 35 mM; settings: protein: recombinant; tags: SUMO; label: 5' fluorescein; G-quadruplex (parallel)
RRM tandem Y19A = RRM tandem Y19A (human, UniProt Q07955 1-196, Y19A); assay: as above; settings: protein: recombinant; tags: SUMO; label: 5' fluorescein; G-quadruplex (parallel)
Chain of RRM tandem Y19A (Q07955 1-196 Y19A): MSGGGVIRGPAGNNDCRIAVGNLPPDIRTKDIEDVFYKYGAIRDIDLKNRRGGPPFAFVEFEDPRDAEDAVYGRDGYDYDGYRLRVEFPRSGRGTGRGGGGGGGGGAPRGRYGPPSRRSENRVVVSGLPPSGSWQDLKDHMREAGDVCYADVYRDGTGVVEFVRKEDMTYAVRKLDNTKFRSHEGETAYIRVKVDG

SRSF1 full-length = SRSF1 full-length (human, UniProt Q07955 1-248); assay: as above; settings: protein: recombinant, tags: none (pSMT3 His-SUMO, Ulp1 cleaved), label: 5' fluorescein
RRM tandem W134A = RRM tandem W134A (human, UniProt Q07955 1-196, W134A); assay: as above; settings: protein: recombinant; tags: SUMO; label: 5' fluorescein; G-quadruplex (parallel)
Chain of RRM tandem W134A (Q07955 1-196 W134A): as the sequence (Q07955 1-196 Y19A) above, with A19Y, W134A counted along it

RRM1/RRM2 linker = molecular target: T1, RRM1/RRM2 linker (human, UniProt Q07955 92-120); assay: as above; settings: protein: recombinant; label: 5' fluorescein; G-quadruplex (parallel)
T1 chain: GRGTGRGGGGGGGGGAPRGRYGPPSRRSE

SRSF1 RS [1] = molecular target: T2, SRSF1 RS (human, UniProt Q07955 199-248); assay: as above; settings: protein: recombinant, tags: none (SUMO cleaved), label: 5' fluorescein
T2 chain: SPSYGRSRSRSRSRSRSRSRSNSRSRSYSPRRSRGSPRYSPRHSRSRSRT

SRSF1 RRM tandem [2] = molecular target: T3, SRSF1 RRM tandem (human, UniProt Q07955 1-196); assay: as above; settings: protein: recombinant, tags: none (SUMO cleaved), label: 5' fluorescein
T3 sequence (Q07955 1-196): as the sequence (Q07955 1-196 Y19A) above, with A19Y counted along it

RRM tandem F58A = RRM tandem F58A (human, UniProt Q07955 1-196, F58A); assay: as above; settings: protein: recombinant; tags: SUMO; label: 5' fluorescein; G-quadruplex (parallel)
Chain of RRM tandem F58A (Q07955 1-196 F58A): as the sequence (Q07955 1-196 Y19A) above, with A19Y, F58A counted along it

RRM tandem F56A = RRM tandem F56A (human, UniProt Q07955 1-196, F56A); assay: as above; settings: protein: recombinant; tags: SUMO; label: 5' fluorescein; G-quadruplex (parallel)
Chain of RRM tandem F56A (Q07955 1-196 F56A): as the sequence (Q07955 1-196 Y19A) above, with A19Y, F56A counted along it

RRM tandem Q135A = RRM tandem Q135A (human, UniProt Q07955 1-196, Q135A); assay: as above; settings: protein: recombinant; tags: SUMO; label: 5' fluorescein; G-quadruplex (parallel)
Chain of RRM tandem Q135A (Q07955 1-196 Q135A): as the sequence (Q07955 1-196 Y19A) above, with A19Y, Q135A counted along it

RRM tandem R173A = RRM tandem R173A (human, UniProt Q07955 1-196, R173A); assay: as above; settings: protein: recombinant; tags: SUMO; label: 5' fluorescein; G-quadruplex (parallel)
Chain of RRM tandem R173A (Q07955 1-196 R173A): as the sequence (Q07955 1-196 Y19A) above, with A19Y, R173A counted along it

RS mutant KS = RS mutant KS (human, UniProt Q07955 198-248, R198K;R204K;R206K;R208K;R210K;R212K;R214K;R216K;R218K;R222K;R224K;R229K;R230K;R2 …); assay: as above; settings: protein: recombinant; tags: none (SUMO cleaved); label: 5' fluorescein; G-quadruplex (parallel)
RS mutant RA = RS mutant RA (human, UniProt Q07955 198-248, S199A;S201A;S205A;S207A;S209A;S211A;S213A;S215A;S217A;S219A;S221A;S223A;S225A;S2 …); assay: FP; similar affinity to RS; FP, 10 nM RNA, 37 C 30 min then 25 C 10 min; 21-mers: 25 mM KCl, 0.25 M Arg/Glu, 20 mM Tris-HCl pH 7.5, 0.1 mM EDTA, 0.1 mM TCEP, 0.02% Tween 20; 8-mers: 35 mM; settings: protein: recombinant; tags: none (SUMO cleaved); label: 5' fluorescein; G-quadruplex (parallel)
SRSF1 RS [3] = molecular target: T2, SRSF1 RS; assay: FP; 8-mer buffer, 35 mM K3PO4; FP, 10 nM RNA, 37 C 30 min then 25 C 10 min; 21-mers: 25 mM KCl, 0.25 M Arg/Glu, 20 mM Tris-HCl pH 7.5, 0.1 mM EDTA, 0.1 mM TCEP, 0.02% Tween 20; 8-mers: 35 mM; settings: protein: recombinant, tags: none (SUMO cleaved), label: 5' fluorescein
SRSF1 RS [4] = molecular target: T2, SRSF1 RS; assay: STD NMR; 0.5 mM RNA, 10 uM RS, D2O; no signal above noise; FP, 10 nM RNA, 37 C 30 min then 25 C 10 min; 21-mers: 25 mM KCl, 0.25 M Arg/Glu, 20 mM Tris-HCl pH 7.5, 0.1 mM EDTA, 0.1 mM TCEP, 0.02% Tween 20; 8-mers: 35 mM; settings: protein: recombinant; tags: none (SUMO cleaved)
SRSF1 RS [5] = molecular target: T2, SRSF1 RS; assay: STD NMR; 0.5 mM RNA, 10 uM RS, D2O; strongest signal; FP, 10 nM RNA, 37 C 30 min then 25 C 10 min; 21-mers: 25 mM KCl, 0.25 M Arg/Glu, 20 mM Tris-HCl pH 7.5, 0.1 mM EDTA, 0.1 mM TCEP, 0.02% Tween 20; 8-mers: 35 mM; settings: protein: recombinant; tags: none (SUMO cleaved)
SRSF1 RRM tandem [6] = molecular target: T3, SRSF1 RRM tandem; assay: FP; FP, 10 nM RNA, 37 C 30 min then 25 C 10 min; 21-mers: 25 mM KCl, 0.25 M Arg/Glu, 20 mM Tris-HCl pH 7.5, 0.1 mM EDTA, 0.1 mM TCEP, 0.02% Tween 20; 8-mers: 35 mM; settings: protein: recombinant; tags: none (SUMO cleaved); label: 5' fluorescein

Chain of RRM tandem WT (Table 3) (Q07955 1-196): as the sequence (Q07955 1-196 Y19A) above, with A19Y counted along it

**Q.** What does the source list for GGGGGCUGGGCGGGGACCGGG (structured_RNA) [ARPC2 GQ]?
**A.** Kd (RRM tandem WT (Table 3)): 130 ± 11 nM; Kd (RRM tandem Y19A): 1800 ± 160 nM; Kd (SRSF1 full-length; G-quadruplex (parallel)): 3.6 ± 0.7 nM; Kd (RRM tandem W134A): 1200 ± 90 nM; binding result (RRM1/RRM2 linker): no binding; Kd (SRSF1 RS [1]; G-quadruplex (parallel)): 250 ± 22 nM; Kd (SRSF1 RRM tandem [2]; G-quadruplex (parallel)): 220 ± 19 nM; Kd (RRM tandem F58A): 1500 ± 80 nM; Kd (RRM tandem F56A): 7000 ± 1500 nM; Kd (RRM tandem Q135A): 350 ± 20 nM; Kd (RRM tandem R173A): 140 ± 12 nM; binding result (RS mutant KS): no binding; binding result (RS mutant RA): binds

**Q.** With CUCUCUCU (ssRNA) [4CU] as the binder, how does the Kd (SRSF1 RS [3]) read?
**A.** 470 ± 12 nM

**Q.** CUCUCUCUCUCUCUCUCUCUC (ssRNA) [21-mer CU] was tested. Which Kd (SRSF1 RS [1]) did it give?
**A.** 1400 ± 100 nM

**Q.** Does UUU (ssRNA) [UUU 3-mer] bind (SRSF1 RS [4])?
**A.** no binding

**Q.** How did the Kd (SRSF1 RS [3]) turn out when GAGAGAGA (ssRNA) [4GA] was run?
**A.** 83 ± 3 nM

**Q.** GGGGGGGG (structured_RNA) [8G] was tested. Which Kd (SRSF1 RS [3]; intermolecular G-quadruplex) did it give?
**A.** 3 ± 0.8 nM

**Q.** Does GGG (ssRNA) [GGG 3-mer] bind (SRSF1 RS [5])?
**A.** binds

**Q.** Which Kd (SRSF1 full-length; G-quadruplex) does the source give for UGGGUUAGGGUUAGGGUUAGGG (structured_RNA) [TERRA GQ] here?
**A.** 4.6 ± 0.5 nM

**Q.** And the Kd (SRSF1 RS [1]; G-quadruplex)?
**A.** 26 ± 2 nM

**Q.** What about the Kd (SRSF1 RRM tandem [2]; G-quadruplex) of the same binder?
**A.** 3200 ± 290 nM

**Q.** UUUUUUUU (ssRNA) [8U] was tested. Which Kd (SRSF1 RS [3]) did it give?
**A.** 550 ± 21 nM

**Q.** AAAAAAAA (ssRNA) [8A] was tested. Which Kd (SRSF1 RS [3]) did it give?
**A.** 610 ± 15 nM

**Q.** UCAGAGGG (ssRNA) [GGG motif RNA] was tested. Which binding signal (SRSF1 RRM tandem [6]) did it give?
**A.** ~3 fold weaker than GGA motif

**Q.** UUGGGAGGGAGGGAGAGGGUU (structured_RNA) [MMP16 GQ] was tested. Which Kd (SRSF1 full-length; G-quadruplex) did it give?
**A.** 5.9 ± 0.6 nM

**Q.** And the Kd (SRSF1 RS [1]; G-quadruplex)?
**A.** 150 ± 10 nM

**Q.** What about the Kd (SRSF1 RRM tandem [2]; G-quadruplex) of the same binder?
**A.** 3500 ± 490 nM

**Q.** Does AAA (ssRNA) [AAA 3-mer] bind (SRSF1 RS [4])?
**A.** no binding

**Q.** How did the Kd (SRSF1 RS [1]) turn out when GAGAGAGAGAGAGAGAGAGAG (ssRNA) [21-mer GA] was run?
**A.** 210 ± 16 nM
